Measurements as given in US20170015742A1 (published 2017).
Blank lines part the entries; values can stand above or below the binder they belong to.

How the values were obtained:
[1] = target: T1, recombinant human PDGF-BB (human, UniProt P01127 82-190, biotin-labelled in the binding and competition ELISAs (sites not given)); experiment: receptor competition ELISA: antibody pre-incubated with biotin-hPDGF-BB, binding to coated hPDGF-Rβ-Fc
T1 construct: Bought protein (CST cat#8912BF) in the ELISAs and cell assays; purified recombinant PDGF-BB in Biacore; also called huPDGF-BB; hPDGF-BB
Method: (§1) Plates were then washed four times with wash buffer (TBS, 0.05% Tween-20) and blocked with Superblock blocking buffer (Thermo Scientific, cat#37535). During the blocking step, supernatants, antibodies, benchmark compounds or DVD-Ig were diluted in assay diluent (10% Superblock containing 0.05% surfactamps) and an eight point titration of each sample molecule was performed. […] Following incubation, plates were washed four times with wash buffer. Detection reagent Streptavidin-polyHRP-40 (Fitzgerald, cat#65r-s104phrp) was diluted in assay diluent and added to plates (50 μL) for 45 minutes at 25° C. with shaking. Plates were washed four times with wash buffer and developed with the addition of Enhanced K-blue TMB substrate (Neogen, cat#308177). The reaction was stopped with 2N sulfuric acid (VWR, cat# BDH3500-1) and the absorbance was read at 450 nm-570 nm. […] Data was analyzed using Softmax Pro 4.8 software and IC₅₀ values calculated using a sigmoidal dose response (variable slope) fit in GraphPad Prism 5.

[2] = target: T1, recombinant human PDGF-BB; experiment: cell-based or functional assay
recombinant rat PDGF-BB [3] = target: recombinant rat PDGF-BB (rat, UniProt Q05028 74-182); experiment: cell-based or functional assay
Target sequence in this assay (Q05028 74-182 limits assumed): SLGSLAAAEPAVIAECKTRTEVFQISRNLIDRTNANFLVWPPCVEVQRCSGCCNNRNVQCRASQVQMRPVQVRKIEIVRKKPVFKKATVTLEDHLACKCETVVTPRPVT

[4] = target: T2, recombinant human PDGF-BB (human, UniProt P01127 82-190); experiment: competition ELISA: blocks biotin-hPDGF-BB binding to coated hPDGF-Rβ-Fc
T2 construct: Bought (CST cat#8912BF), biotinylated for the ELISAs; Dimer of two B chains; also called huPDGF-BB; hPDGF-BB
Method: as §1
T2 sequence (P01127 82-190 limits assumed): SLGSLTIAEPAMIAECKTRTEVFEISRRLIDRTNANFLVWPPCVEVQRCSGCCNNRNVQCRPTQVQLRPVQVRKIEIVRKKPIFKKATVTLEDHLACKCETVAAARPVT

[5] = target: T2, recombinant human PDGF-BB; experiment: cell-based or functional assay
recombinant rat PDGF-BB [6] = target: recombinant rat PDGF-BB (rat, UniProt Q05028 74-182); experiment: cell-based or functional assay; remark: listed apart in the source
Target sequence in this assay (Q05028 74-182 limits assumed): as the sequence (Q05028 74-182 limits assumed) above

[7] = target: T3, recombinant human VEGF-R2-Fc (human, UniProt P35968 20-764); experiment: competition ELISA: antibody added to coated hVEGF-R2-Fc, then biotinylated hVEGF165 (competitor)
T3 construct: Bought Fc fusion (R&D Systems cat#357-KD); also called hVEGFR2-Fc; VEGF-R2 (KDR/Flk-1); not shown: Fc part of the bought fusion protein
Method: To identify molecules which could block the binding of VEGF-R2 (KDR/Flk-1) to hVEGF₁₆₅, a competition ELISA was performed. […] Plates were then washed four times with wash buffer (TBS, 0.05% Tween-20) and blocked with Superblock blocking buffer (Thermo Scientific, cat#37535). […] The samples were added to wells and incubated for 30 minutes at 25° C. with shaking. […] Following incubation, plates were washed four times with wash buffer. Streptavidin-polyHRP-40 (Fitzgerald cat#65r-s104phrp) was diluted in assay diluent (10% Superblock containing 0.05% surfactamps) and added to plates (50 μL) for 45 minutes at 25° C. with shaking. Plates were washed four times with wash buffer and developed with the addition of Enhanced K-blue TMB substrate (Neogen cat#308177). The reaction was stopped with 2N sulfuric acid (VWR, cat# BDH3500-1) and the absorbance was read at 450 nm-570 nm. A decrease in observed optical density indicates the test molecule is blocking the human VEGF-R2-Fc binding to hVEGF₁₆₅. Data was analyzed using Softmax Pro 4.8 software and IC₅₀ values calculated using a sigmoidal dose response (variable slope) fit in GraphPad Prism 5.
Humanized anti-VEGFR2 antibodies were tested for potency against hVEGFR2 in functional assay formats. The antibodies were characterized for the ability to block VEGFR2 binding to hVEGF₁₆₅ in a competition ELISA format (Example 1.22).

[8] = target: T4, recombinant human PDGF-BB (human, UniProt P01127 82-190); experiment: competition ELISA: blocks hPDGF-BB-biotin binding to coated hPDGF-Rβ-Fc
T4 construct: also called hPDGF-BB; huPDGF-BB
Method: as §1
T4 sequence (P01127 82-190 limits assumed): as the sequence (P01127 82-190 limits assumed) above

[9] = target: T5, recombinant human VEGF165 (human, UniProt P15692 207-395); experiment: cell-based or functional assay
[10] = target: T4, recombinant human PDGF-BB; experiment: cell-based or functional assay; remark: listed apart in the source
[11] = target: T5, recombinant human VEGF165; experiment: competition ELISA: blocks biotinylated hVEGF165 binding to coated hVEGF-R2-Fc
Method: To identify molecules that could block the binding of hVEGF₁₆₅ to the hVEGF-R2 (KDR/Flk-1) receptor, a competition ELISA was performed. […] Plates were then washed four times with wash buffer (TBS, 0.05% Tween-20) and blocked with Superblock blocking buffer (Thermo Scientific, cat#37535). […] The pre-incubated sample/hVEGF₁₆₅ complex was added to the coated plate at 50 μL in duplicate and incubated for 30 minutes at 25° C. with shaking. Following incubation, plates were washed four times with wash buffer. Streptavidin-polyHRP-40 (Fitzgerald cal#65r-s104phrp) was diluted in assay diluent (10% Superblock containing 0.05% surfactamps) and added to plates (50 μL) for 45 minutes at 25° C. with shaking. Plates were washed four times with wash buffer and developed with the addition of Enhanced K-blue TMB substrate (Neogen cat#308177). The reaction was stopped with 2N sulfuric acid (VWR, cat# BDH3500-1) and the absorbance was read at 450 nm-570 nm. A decrease in observed optical density indicates the test molecule is blocking the hVEGF₁₆₅ binding to the hVEGF-R2-Fc. Data was analyzed using Softmax Pro 4.8 software and IC₅₀ values calculated using a sigmoidal dose response (variable slope) fit in GraphPad Prism 5.

T1 sequence (P01127 82-190 limits assumed): as above
T3 sequence (P35968 20-764 limits assumed): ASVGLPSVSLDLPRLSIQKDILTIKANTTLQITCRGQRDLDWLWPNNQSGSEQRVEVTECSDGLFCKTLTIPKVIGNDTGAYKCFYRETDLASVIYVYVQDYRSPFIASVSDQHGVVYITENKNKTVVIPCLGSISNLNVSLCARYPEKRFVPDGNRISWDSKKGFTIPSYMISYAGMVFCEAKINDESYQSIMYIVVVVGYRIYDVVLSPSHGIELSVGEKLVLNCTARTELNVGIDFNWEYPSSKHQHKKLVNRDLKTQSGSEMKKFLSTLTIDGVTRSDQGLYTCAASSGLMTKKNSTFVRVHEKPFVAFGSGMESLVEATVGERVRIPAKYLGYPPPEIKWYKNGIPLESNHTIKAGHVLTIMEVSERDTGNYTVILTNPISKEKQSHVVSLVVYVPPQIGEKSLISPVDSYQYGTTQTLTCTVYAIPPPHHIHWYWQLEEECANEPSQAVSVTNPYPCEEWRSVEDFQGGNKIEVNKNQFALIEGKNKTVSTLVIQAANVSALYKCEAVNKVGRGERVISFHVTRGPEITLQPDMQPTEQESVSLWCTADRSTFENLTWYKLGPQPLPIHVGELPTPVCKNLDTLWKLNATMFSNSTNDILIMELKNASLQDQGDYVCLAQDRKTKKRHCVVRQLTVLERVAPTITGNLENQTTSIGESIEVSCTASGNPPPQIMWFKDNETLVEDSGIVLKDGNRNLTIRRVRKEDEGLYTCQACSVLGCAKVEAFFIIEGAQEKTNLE
T5 sequence (P15692 other isoform, or with tags, fused parts or gaps limits assumed): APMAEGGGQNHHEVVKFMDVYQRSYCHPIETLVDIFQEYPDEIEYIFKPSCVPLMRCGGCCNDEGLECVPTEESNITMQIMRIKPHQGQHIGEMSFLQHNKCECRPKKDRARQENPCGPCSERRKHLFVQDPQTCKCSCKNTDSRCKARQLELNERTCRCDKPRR

B2: chBDI-5G2 (antibody, human IgG1, V domains shown)
VH: QVTLKESGPGILQPSQTLSLTCTFSGFSLSTFGMGVGWIRQPSGKGLEWLANIWWDDDKYYNPSLKNRLTISKDTSNSQAFLEITNVDTADTATYYCARISTGISSYYVMDAWGQGASVTVSS
VL: QFTLTQPKSVSGSLRSTITIPCERSSGDIGDTYVSWYQQHLGRPPINVIYGNDQRPSEVSDRFSGSIDSSSNSASLTITNLQMDDEADYFCQSYDSDIDIVFGGGTKLTVL
notes: also called chimeric BDI-5G2-F9
IC50 [1]: 1.08 nM
ratPDGF-BB Neutralization Potency (nM) in NIH-3T3 Cells (recombinant rat PDGF-BB [3]): 0.118 nM
huPDGF-BB Neutralization Potency (nM) in NIH-3T3 Cells [2]: 0.181 nM

B3: BDI-9E8-E7 (antibody, IgG2b, V domains shown)
VH: QVTLKESGPGILQPSQTLSLTCTFSGFSLSTYGMGVGWIRQPSGKGLEWLANIWWDDDKYYNPSLKNRLTISKDTSNNQAFLKITNVDTADTATYYCARIESIGTTYSFDYWGQGVMVTVSS
VL: QFTLTQPKSVSGSLRSTITIPCERSSGDIGDSYVSWYQQHLGRPPINVIYADDQRPSEVSDRFSGSIDSSSNSASLTITNLQMDDEADYFCQSYDINIDIVFGGGTKLTVL
notes: Rat hybridoma monoclonal antibody
IC50 [4]: 1.12 nM
Phospho-Tyr751/hPDGF-BB Neutralization [5]: 0.629 nM
huPDGF-BB Neutralization Potency (nM) in NIH-3T3 Cells [5]: 0.195 nM
Phospho-Tyr751/ratPDGF-BB Neutralization (recombinant rat PDGF-BB [6]): 0.333 nM

B4: BDI-5H1-F6 (antibody, IgG2b, V domains shown)
VH: QVTLKESGPGILQPSQTLSLTCTFSGFSLSTFGMGVGWIRQPSGKGLEWLANIWWDDDKYYNPSLKNRLTISKDTSNSQAFLEITNVDTADTATYYCARISTGISSYYVMDAWGQGASVTVSS
VL: QFTLTQPKSVSGSLRSTITIPCERSSGDIGDTYVSWYQQHLGRPPINVIYGNDQRPSEVSDRFSGSIDSSSNSASLTITNLQMDDEADYFCQSYDSDIDIVFGGGTKLTVL
notes: as for B3
IC50 [4]: 0.528 nM
Phospho-Tyr751/hPDGF-BB Neutralization [5]: 0.884 nM
huPDGF-BB Neutralization Potency (nM) in NIH-3T3 Cells [5]: 0.371 nM
Phospho-Tyr751/ratPDGF-BB Neutralization (recombinant rat PDGF-BB [6]): 0.319 nM

B5: hBCU-6B1.2 (antibody, V domains shown)
VH: EVQLVQSGAEVKKPGASVKVSCKASGYTFTNYGMYWVKQAPGQGLEFMGWINTETGQPTYADDFKGRFTFTLDTSTSTAYMELRSLRSDDTAVYFCARLGNNYGIWFAYWGQGTLVTVSS
VL: DIQMTQSPSSLSASVGDRVTIECRASDDLYSTLAWYQQKPGKSPKLLIFDANRLAAGVPSRFSGSGSGTDYSLTISSLQPEDVATYFCQQYNKFPWTFGGGTKVEIK
notes: Humanized anti-human VEGFR II IgG from pHybE expression vectors
IC50 [7]: 0.34 nM

B8: hBCU-6B1.4 (antibody, V domains shown)
VH: EVQLVQSGAEVKKPGASVKVSCKASGYTFTNYGMYWVRQAPGQGLEFMGWINTETGQPTYADDFKGRFTFTLDTSTSTAYMELRSLRSDDTAVYYCARLGNNYGIWFAYWGQGTLVTVSS
VL: DIQMTQSPSSLSASVGDRVTITCRASDDLYSTLAWYQQKPGKSPKLLIFDANRLAAGVPSRFSGSGSGTDYTLTISSLQPEDVATYFCQQYNKFPWTFGGGTKVEIK
notes: as for B5
IC50 [7]: 0.335 nM

B9: 9E10.1_GS_CL-33675 (bispecific antibody, human IgG1, kappa, L234A L235A)
heavy: EIQLVQSGSELKKPGASVKVSCKASGYTFTNYGMYWVKQAPGQGLEYMGWIDTETGRPTYADDFKGRFVFSLDTSVSTAYLQISSLKAEDTAVYFCARWSGDTTGIRGPWFAYWGQGTLVTVSSGGGGSGGGGSEVTLRESGPALVKPTQTLTLTCTFSGFSLSTYGMGVGWIRQPPGKALEWLANIWWDDDKYYNPSLKNRLTISKDTSKNQVVLTMTNMDPVDTATYYCARIESSGPKYSFDYWGQGTMVTVSSASTKGPSVFPLAPSSKSTSGGTAALGCLVKDYFPEPVTVSWNSGALTSGVHTFPAVLQSSGLYSLSSVVTVPSSSLGTQTYICNVNHKPSNTKVDKKVEPKSCDKTHTCPPCPAPEAAGGPSVFLFPPKPKDTLMISRTPEVTCVVVDVSHEDPEVKFNWYVDGVEVHNAKTKPREEQYNSTYRVVSVLTVLHQDWLNGKEYKCKVSNKALPAPIEKTISKAKGQPREPQVYTLPPSREEMTKNQVSLTCLVKGFYPSDIAVEWESNGQPENNYKTTPPVLDSDGSFFLYSKLTVDKSRWQQGNVFSCSVMHEALHNAYTQKSLSLSPGK
light: DIRMTQSPSSLSASVGDRVTIECLASEDIYSDLAWYQQKPGKSPKLLIYNANGLQNGVPSRFSGSGSGTDYSLTISSLQPEDVATYFCQQYNYFPGTFGQGTKLEIKGGSGGGGSGGEIVLTQSPGTLSLSPGERATLSCRASSGSIWYSFVSWYQQKPGQAPRLLIYADDQRASGIPDRFSGSGSGTDFTLTISRLEPEDFAVYYCQSYGINIDVVFGGGTKVEIKRTVAAPSVFIFPPSDEQLKSGTASVVCLLNNFYPREAKVQWKVDNALQSGNSQESVTEQDSKDSTYSLSSTLTLSKADYEKHKVYACEVTHQGLSSPVTKSFNRGEC
notes: DVD-Ig, outer hBEW-9E10.1, inner CL-33675, GS-H10/GS-L10(dR), hu IgG1/k LALA H435A; also called PR-1610561; 9E10.1-GS-33675
IC50 [8]: 0.09 nM
Potency IC50 (nM) HMVEC-d hVEGF165 [9]: 0.145 nM
Potency IC50 (nM) NIH-3T3 hPDGF-BB [10]: 0.034 nM
IC50 [11]: 0.045 nM

B10: BDI-7H10-D8 (antibody, IgG2b, V domains shown)
VH: EVKLQQSGDELVRPGASVKMSCKASGYTFTDYAMHWVKQSPGQGLEWIGTIIPLIDTTSYNQKFKGKATLTADTSSNTAYMELSRLTSEDSAVYYCARDWDNNWGYFDYWGQGVMVTVSS
VL: DVVLTQTPVSLSVTLGDQASISCRSSQSLEYSDGYTYLEWYLQKPGQSPQLLIYGVSNRFSGVPDRFIGSGSGTDFTLKISRVEPEDLGVYYCFQATHDPLTFGSGTKLEIK
Phospho-Tyr751/ratPDGF-BB Neutralization (recombinant rat PDGF-BB [6]): > 5 nM

More lines, now with the values ahead:

IC50 [1]: 0.417 nM
huPDGF-BB Neutralization Potency (nM) in NIH-3T3 Cells [2]: > 5 nM
B1: chBDI-1E1 (antibody, human IgG1, V domains shown)
VH: EVKLQQSGDELVRPGASVKMSCKASGYTFTDYVMHWVKQSPGQGLEWIGTIIPLIDTTSYNQKFKGKATLTADKSSNTAYMELSRLTSEDSAVYYCARTSPYYYSSYDVMDAWGQGASVTVSS
VL: NIQLTQSPSLLSASVGDRVTLSCKGSQNINNYLAWYQQKLGEAPKLLIYKTNNLQTGIPSRFSGCGSGTDYTLTISSLHSEDLATYYCYQYDNGYTFGAGTKLELK
notes: also called chimeric BDI-1E1-D5

IC50 [7]: 0.319 nM
B6: hBCU-6B1.3 (antibody, V domains shown)
VH: EVQLVQSGAEVKKPGASVKVSCKASGYTFTNYGMYWVRQAPGQGLEFMGWINTETGQPTYADDFKGRFTFTLDTSTSTAYMELRSLRSDDTAVYYCARLGNNYGIWFAYWGQGTLVTVSS
VL: DIQMTQSPSSLSASVGDRVTIECRASDDLYSTLAWYQQKPGKSPKLLIFDANRLAAGVPSRFSGSGSGTDYSLTISSLQPEDVATYFCQQYNKFPWTFGGGTKVEIK
notes: as for B5

IC50 [7]: 0.474 nM
B7: hBCU-6B1.1 (antibody, V domains shown)
VH: EVQLVQSGSELKKPGASVKVSCKASGYTFTNYGMYWVKQAPGQGLEFMGWINTETGQPTYADDFKGRFVFSLDTSVSTAYLQISSLKAEDTAVYFCARLGNNYGIWFAYWGQGTLVTVSS
VL: DIQMTQSPSSLSASVGDRVTIECRASDDLYSTLAWYQQKPGKSPKLLIFDANRLAAGVPSRFSGSGSGTDYSLTISSLQPEDVATYFCQQYNKFPWTFGGGTKVEIK
notes: as for B5
